Results on 1 substance are retold here after doi:10.1101/2024.08.08.606885.

Holding throughout (assay): BLI; […]; 10x kinetics buffer, […]; global fit, 1:1 binding model; […]
For experiment [1], the target named is SARS-CoV-2 BA.2.12.1 RBD (SARS-CoV-2) (UniProt P0DTC2).
For experiment [2], the target named is SARS-CoV-2 BA.2.75.2 RBD (SARS-CoV-2) (UniProt P0DTC2).
Experiment [3] addresses SARS-CoV-2 BA.2.86 RBD (SARS-CoV-2) (UniProt P0DTC2).
Experiment [4] concerns the target SARS-CoV-2 BA.5 RBD (SARS-CoV-2) (UniProt P0DTC2).
Experiment [5] deals with SARS-CoV-2 BQ.1.1 RBD (SARS-CoV-2) (UniProt P0DTC2).
The target of experiment [6] is SARS-CoV-2 Delta RBD (SARS-CoV-2) (UniProt P0DTC2).
In experiment [7] the target is SARS-CoV-2 Wuhan-Hu-1 RBD (SARS-CoV-2) (UniProt P0DTC2).
The target of experiment [8] is SARS-CoV-2 XBB.1.5 RBD (SARS-CoV-2) (UniProt P0DTC2).

pKd: −log10 of the molar value.

Turning to “TRI2-2 homotrimeric miniprotein inhibitor (designed binder)”, the pKd in experiment [1] is 9.07; in experiment [2], 9.27; in experiment [3], 9.41; in experiment [4], 10.51; in experiment [5], 9.68; in experiment [6], 11.94. Besides, the pKd in experiment [7] is 11.92; in experiment [8], 9.18. Further, the koff in experiment [1] was 0.000117 s⁻¹; in experiment [2], 8.93e-05 s⁻¹; in experiment [3], 0.000131 s⁻¹; in experiment [4] it was 9.92e-06 s⁻¹; in experiment [5], 3.36e-05 s⁻¹; in experiment [6] it was 2.95e-07 s⁻¹. For the same substance, the results for the koff in experiment [7] and in experiment [8] were 3.46e-07 s⁻¹ and 0.000105 s⁻¹, respectively. For the same substance, the kon in experiment [1] came to 137000 M⁻¹ s⁻¹; in experiment [2] it was 165000 M⁻¹ s⁻¹; in experiment [3], 339000 M⁻¹ s⁻¹; in experiment [4], 325000 M⁻¹ s⁻¹; in experiment [5], 160000 M⁻¹ s⁻¹; in experiment [6], 259000 M⁻¹ s⁻¹. The kon in experiment [7] was found to be 286000 M⁻¹ s⁻¹; in experiment [8], 160000 M⁻¹ s⁻¹.

What is called pKd is −log10 of the Kd, conventionally taken in molar units. One may read the koff as a measure of how fast the partners let go of each other. Higher therefore signals a short-lived complex. The kon is a measure of how fast the partners come together. A lower kon goes with slow association.
